Experimental data reported in the Human Domainome abundance scans (Beltran et al. 2025).
± gives the uncertainty stated by the source.

B1: RUN and FYVE domain-containing protein 1, residues 639 to 698; numbered along this chain, Q96T51 (parent)
chain: WLKDDEATHCRQCEKEFSISRRKHHCRNCGHIFCNTCSSNELALPSYPKPVRVCDSCHTL
B2: POU domain, class 3, transcription factor 2, residues 262 to 338; numbered along this chain, P20265 (parent)
chain: EDTPTSDDLEQFAKQFKQRRIKLGFTQADVGLALGTLYGNVFSQTTICRFEALQLSFKNMCKLKPLLNKWLEEADSS

Variants of: B1
Assay: abundance fitness (aPCA) (normalised: wild type 0, dead -1); higher = more abundant; growth selection in yeast, the domain comes from the species named
Settings: Homo sapiens

Row | Variant | abundance fitness
1 | C54Y | -0.845 ± 0.18
2 | C54R | -0.278 ± 0.48
3 | C54G | -0.731 ± 0.25
4 | D55T | -0.602 ± 0.37
5 | D55Y | -0.31 ± 0.32
6 | V53I | -0.385 ± 0.093
7 | P50I | -0.807 ± 0.17
8 | P50V | -0.074 ± 0.047
9 | P50L | -0.085 ± 0.043
10 | P50G | -0.118 ± 0.047
11 | P50Y | -0.219 ± 0.12
12 | P50D | -0.295 ± 0.091
13 | P50A | 0.05 ± 0.056
14 | P50R | -0.185 ± 0.044
15 | P50Q | -0.219 ± 0.071
16 | P50K | 0.023 ± 0.051
17 | P50C | -0.128 ± 0.08
18 | P50H | -0.347 ± 0.092
19 | P50F | -0.211 ± 0.13
20 | P50T | -0.233 ± 0.065
21 | P50M | -0.162 ± 0.063
22 | P50E | -0.078 ± 0.081
23 | P50N | -0.043 ± 0.086

Row | Variant | abundance fitness
24 | P50S | -0.253 ± 0.053
25 | P50W | -0.549 ± 0.089
26 | S56H | 0.355 ± 0.081
27 | S56D | 0.097 ± 0.055
28 | S56P | 0.24 ± 0.043
29 | S56I | 0.136 ± 0.073
30 | S56G | 0.3 ± 0.049
31 | S56A | 0.21 ± 0.032
32 | S56W | 0.033 ± 0.061
33 | S56E | 0.331 ± 0.06
34 | S56M | 0.165 ± 0.053
35 | S56F | 0.271 ± 0.061
36 | S56K | 0.232 ± 0.063
37 | S56T | 0.284 ± 0.051
38 | S56N | 0.246 ± 0.078
39 | S56Q | 0.319 ± 0.049
40 | S56Y | 0.188 ± 0.056
41 | S56C | 0.03 ± 0.074
42 | C57W | -0.682 ± 0.064
43 | C57L | -0.475 ± 0.056
44 | C57A | -0.756 ± 0.091
45 | C57V | -0.665 ± 0.05
46 | C57Y | -0.828 ± 0.12

Row | Variant | abundance fitness
47 | C57G | -0.53 ± 0.048
48 | C57R | -0.673 ± 0.061
49 | C57F | -0.794 ± 0.13
50 | C57K | -0.613 ± 0.078
51 | C57D | -0.619 ± 0.057
52 | C57S | -0.716 ± 0.06
53 | C57E | -0.711 ± 0.073
54 | C57P | -0.697 ± 0.071
55 | C57I | -0.88 ± 0.12
56 | C57Q | -0.409 ± 0.078
57 | C57T | -0.467 ± 0.07
58 | C57H | -0.957 ± 0.18
59 | H58I | -0.157 ± 0.057
60 | H58S | -0.179 ± 0.044
61 | H58N | -0.242 ± 0.063
62 | H58D | -0.495 ± 0.08
63 | H58W | 0.022 ± 0.042
64 | H58K | -0.091 ± 0.06
65 | H58Q | 0.065 ± 0.044
66 | H58T | -0.226 ± 0.052
67 | H58E | -0.062 ± 0.052
68 | H58L | -0.114 ± 0.038
69 | H58V | 0.037 ± 0.054

Row | Variant | abundance fitness
70 | H58F | -0.105 ± 0.057
71 | H58R | -0.147 ± 0.037
72 | H58A | -0.1 ± 0.043
73 | H58G | -0.203 ± 0.039
74 | H58P | -0.667 ± 0.061
75 | H58C | -0.365 ± 0.054
76 | H58M | -0.109 ± 0.065
77 | T59G | 0.161 ± 0.038
78 | T59C | -0.051 ± 0.052
79 | T59M | 0.019 ± 0.049
80 | T59S | 0.052 ± 0.041
81 | T59V | 0.127 ± 0.046
82 | T59H | -0.148 ± 0.096
83 | T59K | 0.144 ± 0.14
84 | T59Q | 0.328 ± 0.076
85 | T59L | -0.048 ± 0.04
86 | T59A | 0.263 ± 0.042
87 | T59Y | -0.183 ± 0.06
88 | T59I | -0.033 ± 0.059
89 | T59D | 0.062 ± 0.068
90 | T59E | 0.026 ± 0.087
91 | T59F | -0.207 ± 0.089
92 | T59P | -0.281 ± 0.068

Row | Variant | abundance fitness
93 | T59N | -0.058 ± 0.081
94 | K49P | -0.72 ± 0.15
95 | K49N | 0.012 ± 0.09
96 | K49S | -0.09 ± 0.042
97 | K49Y | -0.34 ± 0.081
98 | K49Q | -0.192 ± 0.12
99 | K49W | -0.327 ± 0.057
100 | K49R | 0.016 ± 0.035
101 | K49T | -0.212 ± 0.065
102 | K49V | -0.14 ± 0.051
103 | L60V | -0.202 ± 0.065
104 | L60C | -0.625 ± 0.088
105 | L60T | -0.087 ± 0.066
106 | L60Y | -0.422 ± 0.17
107 | L60F | -0.163 ± 0.07
108 | L60P | -0.404 ± 0.085
109 | L60S | -0.067 ± 0.044
110 | L60I | 0.094 ± 0.19
111 | L60H | -0.293 ± 0.16
112 | L60A | 0.036 ± 0.059
113 | L60M | -0.194 ± 0.081
114 | L60G | 0.229 ± 0.11
115 | L60Q | 0.101 ± 0.086

Row | Variant | abundance fitness
116 | L60K | 0.023 ± 0.047
117 | L60W | -0.366 ± 0.064
118 | L60E | 0.031 ± 0.13
119 | L60N | -0.126 ± 0.14
120 | V51G | -0.55 ± 0.058
121 | V51H | -0.945 ± 0.18
122 | V51W | -0.535 ± 0.097
123 | V51D | -0.879 ± 0.15
124 | V51R | -0.474 ± 0.058
125 | V51E | -0.301 ± 0.095
126 | V51I | -0.249 ± 0.073
127 | V51L | -0.353 ± 0.046
128 | V51Y | -0.562 ± 0.12
129 | V51C | -1.01 ± 0.13
130 | V51N | -0.695 ± 0.14
131 | V51S | -0.345 ± 0.062
132 | V51A | -0.047 ± 0.08
133 | V51Q | -0.17 ± 0.11
134 | V51K | -0.636 ± 0.2
135 | V51F | -0.571 ± 0.075
136 | V51T | 0.184 ± 0.057
137 | V51P | -0.403 ± 0.14
138 | V51M | -0.244 ± 0.091

Variants of: B2
Assay: as above
Settings: Homo sapiens

Row | Variant | abundance fitness
139 | D8Q | 0.055 ± 0.054
140 | D8V | -0.153 ± 0.035
141 | D8A | -0.006 ± 0.038
142 | D8L | -0.172 ± 0.04
143 | D8I | -0.423 ± 0.12
144 | D8W | -0.418 ± 0.042
145 | D8N | 0.047 ± 0.096
146 | D8S | 0.034 ± 0.037
147 | D8R | -0.234 ± 0.029
148 | D8Y | -0.41 ± 0.14
149 | D8T | -0.093 ± 0.055
150 | D8G | -0.043 ± 0.027
151 | D8C | -0.121 ± 0.057
152 | D8F | -0.186 ± 0.087
153 | D8K | -0.074 ± 0.07
154 | D8E | 0.079 ± 0.041
155 | D8H | -0.052 ± 0.097
156 | D8M | -0.056 ± 0.049
157 | D8P | -0.34 ± 0.066
158 | T5R | -0.082 ± 0.027
159 | T5E | -0.144 ± 0.039
160 | T5H | -0.079 ± 0.064
161 | T5S | -0.008 ± 0.032
162 | T5D | -0.042 ± 0.04
163 | T5P | -0.138 ± 0.042
164 | T5F | -0.109 ± 0.094
165 | T5N | 0.026 ± 0.046
166 | T5M | -0.056 ± 0.044
167 | T5L | -0.041 ± 0.034
